# Data reported in article PMC11237949, “Structure and dynamics of the staphylococcal pyridoxal 5-phosphate synthase complex reveal transient interactions at the enzyme interface” (The Journal of Biological Chemistry, 2024).
# B1: Staphylococcus aureus Pdx1 (PLP synthase subunit) (enzyme, S. aureus, UniProt A5IQ72 1-295, looked up)
# chain: MSKIIGSDRVKRGMAEMQKGGVIMDVVNAEQARIAEEAGAVAVMALERVPSDIRAAGGVARMANPKIVEEVMNAVSIPVMAKARIGHITEARVLEAMGVDYIDESEVLTPADEEYHLRKDQFTVPFVCGCRNLGEAARRIGEGAAMLRTKGEPGTGNIVEAVRHMRQVNSEVSRLTVMNDDEIMTFAKDIGAPYEILKQIKDNGRLPVVNFAAGGVATPQDAALMMELGADGVFVGSGIFKSEDPEKFAKAIVQATTHYQDYELIGRLASELGTAMKGLDINQLSLEERMQERGW
# notes: Pdx1 of S. aureus; Cloned into both pETM11/LIC (6xHis-TEV) and pETTRXA-1a/LIC (6xHis-TRX-TEV); Forms hexamers or dodecamers depending on the buffer; also called SaPdx1; source: E. coli Rosetta (DE3), purified (Ni-NTA, TEV cleavage, second Ni-NTA, SEC on Superdex 200); not shown: His6, N-terminal, cleaved
# Key:
# SaPdx1 = target: T1, SaPdx1 (Staphylococcus aureus, UniProt Q2G0Q1); test: PLP Schiff base with Tris, absorbance […] nm; type: biochemical; settings: with R5P (1 mM in standard mix) and 20 mM ammonium sulfate, 40 uM enzyme, 50 mM Tris-HCl pH 8, 150 mM NaCl, 37 °C; apparent; substrate inhibition at high G3P
# T1 construct: gene pdxS; synthetic gene, E. coli Rosetta (DE3), N-terminal 6xHis (TRX)-TEV tag cleaved; 297 residues printed; hexamer/dodecamer, dodecamer active; assayed without Pdx2, with ammonium sulfate
# T1 sequence (Q2G0Q1 1-295): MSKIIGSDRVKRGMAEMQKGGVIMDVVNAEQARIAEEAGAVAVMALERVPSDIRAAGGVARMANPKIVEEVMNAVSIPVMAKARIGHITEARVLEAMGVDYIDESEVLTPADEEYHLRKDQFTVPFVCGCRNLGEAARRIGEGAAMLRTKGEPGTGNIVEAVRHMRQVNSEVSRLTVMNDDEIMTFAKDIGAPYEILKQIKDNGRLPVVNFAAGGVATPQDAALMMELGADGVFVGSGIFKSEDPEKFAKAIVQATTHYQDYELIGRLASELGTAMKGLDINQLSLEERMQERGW
# [1] = target: T2, SaPLP synthase (SaPdx1 + SaPdx2) (Staphylococcus aureus, UniProt Q2G0Q1); test: PLP Schiff base with Tris, absorbance […] nm; type: biochemical; settings: with R5P (1 mM in standard mix) and 20 mM glutamine, 40 uM Pdx1 and 40 uM Pdx2, 50 mM Tris-HCl pH 8, 150 mM NaCl, 37 °C; apparent; substrate inhibition at high G3P
# T2 construct: gene pdxS; wild-type complex of separately expressed subunits, E. coli Rosetta (DE3), N-terminal His tags TEV-cleaved; up to 24-mer, substoichiometric in Pdx2 at rest, 12:12 in catalysis; with Pyridoxal 5'-phosphate synthase subunit PdxT
# T2 sequence (Q2G0Q1 1-295): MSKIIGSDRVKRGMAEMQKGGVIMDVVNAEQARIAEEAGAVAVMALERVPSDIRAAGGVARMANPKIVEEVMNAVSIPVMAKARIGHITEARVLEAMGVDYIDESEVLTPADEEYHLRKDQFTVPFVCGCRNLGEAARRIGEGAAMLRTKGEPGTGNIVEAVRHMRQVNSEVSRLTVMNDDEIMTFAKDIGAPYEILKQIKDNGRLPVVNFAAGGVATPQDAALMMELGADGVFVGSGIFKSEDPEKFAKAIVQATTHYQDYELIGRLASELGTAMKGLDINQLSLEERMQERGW
# T2 sequence (Q2G0Q0 1-186 partner): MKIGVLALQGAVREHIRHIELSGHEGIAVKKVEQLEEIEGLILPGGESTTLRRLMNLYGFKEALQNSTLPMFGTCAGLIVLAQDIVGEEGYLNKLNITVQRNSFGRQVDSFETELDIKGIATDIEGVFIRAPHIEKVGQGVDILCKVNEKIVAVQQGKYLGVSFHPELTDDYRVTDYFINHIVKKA
# [2] = target: the molecule itself; test: SEC + other: dynamic light scattering; SaPdx1 purified in Tris-HCl buffer
# [3] = target: B1; test: cell-based or functional assay
# [4] = target: B1; test: SAXS; SEC-SAXS of the SaPdx1-SaPdx2 complexes (WT and mutant), 7 mg/ml, Superose 6 Increase 10/300; volume fractions of stoichiometries estimated with OLIGOMER from AF2-based models; settings: both partners purified
molecule,measurement,setting,value
O=C[C@H](O)COP(=O)(O)O [glyceraldehyde 3-phosphate],Glyceraldehyde 3-phosphate / Ki,SaPdx1,3.3 ± 0.9 mM
same,Glyceraldehyde 3-phosphate / Ki,[1],1.9 ± 0.9 mM
B1,stoichiometry N,[2],6
"Staphylococcus aureus Pdx2 (glutaminase subunit), wild type (enzyme, S. aureus, UniProt A5IQ73 1-186, looked up) MKIGVLALQGAVREHIRHIELSGHEGIAVKKVEQLEEIEGLILPGGESTTLRRLMNLYGFKEALQNSTLPMFGTCAGLIVLAQDIVGEEGYLNKLNITVQRNSFGRQVDSFETELDIKGIATDIEGVFIRAPHIEKVGQGVDILCKVNEKIVAVQQGKYLGVSFHPELTDDYRVTDYFINHIVKKA",increase in the apparent kcat/KM ratio of PLP synthesis (G3P varied) for the SaPLP complex compared to SaPdx1 + ammonia,[3],5.7 fold
same,increase in the apparent kcat/KM ratio of PLP synthesis (R5P varied) for the SaPLP complex compared to SaPdx1 + ammonia,[3],~21 fold
"Staphylococcus aureus Pdx2 H165N (enzyme, also called SaPdx2mut; SaPdx2_(H165N); source: E. coli Rosetta (DE3), purified (Ni-NTA, TEV cleavage, second Ni-NTA, SEC on Superdex 75)) MKIGVLALQGAVREHIRHIELSGHEGIAVKKVEQLEEIEGLILPGGESTTLRRLMNLYGFKEALQNSTLPMFGTCAGLIVLAQDIVGEEGYLNKLNITVQRNSFGRQVDSFETELDIKGIATDIEGVFIRAPHIEKVGQGVDILCKVNEKIVAVQQGKYLGVSFNPELTDDYRVTDYFINHIVKKA",stoichiometry N,[4],1
